Data on 9 molecules can be found in US5218092A, “Modified granulocyte-colony stimulating factor polypeptide with added carbohydrate chains” (Kyowa Hakko Kogyo Co., Ltd., priority 1988, dated 1993).

One data set deals with fibrin. Conditions: cited from earlier work.
A further data set has as its system thrombin. The conditions noted are these: cited from earlier work.
For the next data set, the system named is plasminogen in blood. The conditions noted are these: in vivo; cited from earlier work.
The conditions of data set [1]: cited from earlier work; for site of clearance: sialic acid-containing or after sialic acid elimination.
The conditions of data set [2]: no carbohydrate chain; cited from earlier work.
The conditions of data set [3]: no carbohydrate chain; cited from earlier work. The source holds these as a separate data set.
A further data set concerns plasmin. Conditions: cited from earlier work.
The conditions of data set [4]: rat plasma and rat perfusate; cited from earlier work.
The next data set deals with chymotrypsin. The experiment in a line: proteolysis susceptibility of hG-CSF and hG-CSF[ND28] produced in Escherichia coli. The format is in vitro ADME. An excerpt:
Analysis of hG-CSF and the hG-CSF derivative hG-CSF[ND 28] […] On the basis of the above findings, it is estimated that, in hG-CSF[ND28], a portion close to the N terminus and a portion in the vicinity of the 144th (from the N terminus) amino acid are found on the polypeptide surface. Therefore, an attempt was made to add a carbohydrate chain to hG-CSF[ND28] on the 6th or 145th (from the N terminus) amino acid residue thereof. An hG-CSF[ND28] derivative which has a carbohydrate chain addition site on the 6th (from the N terminus) amino acid residue is hG-CSF[ND28N6] and a derivative which has a carbohydrate chain addition site on the 145th (from the N terminus) amino acid residue is hG-CSF[ND28N145]. In these cases, it is expected that the carbohydrate chain addition can result in development of protease resistance. Retardation of blood clearance can also be expected as a result of stabilization of the polypeptide.

On to Urokinase, for which the affinity for fibrin entry in the data set with fibrin is “no affinity for fibrin”. Also, the “conversion under the action of thrombin” value in the data set on thrombin was “converted to an inactive form upon exposure to a protease called thrombin”. For the same molecule, the “systemic hyperfibrinolysis / bleeding tendency” value with plasminogen in blood is “causing systemic hyperfibrinolysis and leading to a bleeding tendency”.

Regarding “hGM-CSF after sialic acid elimination: hGM-CSF after sialic acid elimination”, in data set [1] (after sialic acid elimination), the rate of clearance result is recorded as “increased rate of clearance”. In addition, in data set [1], the site of clearance result is “undergoes clearance in the liver”.

For the molecule “hGM-CSF: human granulocyte macrophage colony stimulating factor (hGM-CSF)”, in data set [1] (dependence on number of carbohydrate chains), the “rate of clearance from the rat plasma” value is “the rate of clearance from the rat plasma increases in proportion to the reduction in the number of carbohydrate chains”.

Turning to “human erythropoietin: human erythropoietin produced in Escherichia coli or enzymatically treated for carbohydrate chain elimination”, the activity in vitro entry in data set [2] is recorded as “shows activity in vitro”. Besides, in data set [3], the activity in vivo result is listed as “shows decreased activity in vivo” and the clearance result is “undergoes rapid clearance”.

For “sialic acid-containing hGM-CSF: sialic acid-containing hGM-CSF”, in data set [1], the site of clearance result is listed as “undergoes clearance in the kidney”.

In the case of streptokinase: thrombolytic agent, the affinity for fibrin entry in the data set on fibrin is “no affinity for fibrin”. Moreover, the “systemic hyperfibrinolysis / bleeding tendency” value in the data set with plasminogen in blood is “causing systemic hyperfibrinolysis and leading to a bleeding tendency”.

As to “t-PA: tissue plasminogen activator (t-PA)”, the affinity for fibrin entry in the data set on fibrin was “have affinity for fibrin”. Besides, the “conversion under the action of plasmin” value with plasmin is given as “Plasmin converts the single-chainform to the double-chain form”.

B1: α1 -acid glycoproteins: α1 -acid glycoproteins differing in carbohydrate structure as biosynthesized in a rat liver primary culture system (protein, UniProt P02764 19-205, looked up)
Alpha-1-acid glycoprotein: QNPEPANITLGIPITNETLKWLSDKWFYMGAAFRDPVFKQAVQTIQTEYFYLTPNLINDTIELREFQTTDDQCVYNFTHLGVQRENGTLSKCAGAVKIFAHLIVLKKHGTFMLAFNLTDENRGLSFYAKKPDLSPELRKIFQQAVKDVGMDESEIVFVDWTKDKCSEQQKQQLELEKETKKETKKDP
modifications: glycoform mixture
notes: α1 -acid glycoproteins differing in carbohydrate structure as biosynthesized in a rat liver primary culture system
For the molecule B1, in data set [4], the “order of clearance rates” value is reported as “high mannose type>carbohydrate chain-deficient type>hybrid type>complex type (natural form)”.

B2: hG-CSF: human granulocyte colony stimulating factor (hG-CSF) (protein, UniProt P09919 31-207, looked up)
Granulocyte …: TPLGPASSLPQSFLLKCLEQVRKIQGDGAALQEKLVSECATYKLCHPEELVLLGHSLGIPWAPLSSCPSQALQLAGCLSQLHSGLFLYQGLLQALEGISPELGPTLDTLQLDVADFATTIWQQMEELGMAPALQPTQGAMPAFASAFQRRAGGVLVASHLQSFLEVSYRVLRHLAQP
Consider B2, for which, in the data set with chymotrypsin, the “susceptibility to proteolysis by chymotrypsin behind 144th amino acid Phe” value was “susceptible to proteolysis by chymotrypsin”.
